Results published in the supplement of paper PMC7125110.
± gives the standard error. Fewer inactive variants are shown than the library holds.

B1: glmS ribozyme (parent)
chain: AUAAAAGCGCCAGAACUACAGAAAUGUAGUUGACGAGGAGGAGGUUUAUCGAAUUUUCGGCGGAUGCCUCCAAA

Columns and labels:
Details in all cases: with glucosamine-6-phosphate
glucosamine-6-phosphate [1] = variants of: B1; test: self-cleavage kobs at 640 uM GlcN6P; higher = faster cleavage; RNA array
Procedure, shortened: (§1)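 Barcoded ribozyme variants on sequenced MiSeq chips were transcribed in situ by E. coli RNA polymerase and followed at 37 °C through a hybridised Cy3 probe. Glucosamine-6-phosphate at 40 μM to 10 mM in HEPES/KCl/Mg(OAc)2 buffer was flowed in, and tiles were imaged over ~14 h. Signals were normalised to baseline and to non-cleaving reference variants, and per-tile medians were fit to one- or two-exponential decays to give kobs. Weighted Michaelis–Menten fits across concentrations gave kcat and KM.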

glucosamine-6-phosphate [2] = variants of: B1; test: self-cleavage kobs at 2500 uM GlcN6P; higher = faster cleavage; RNA array
Procedure, shortened: as §1

glucosamine-6-phosphate [3] = variants of: B1; test: self-cleavage kobs at 10000 uM GlcN6P; higher = faster cleavage; RNA array
Procedure, shortened: as §1

Variant | self-cleavage kobs at 640 uM GlcN6P (glucosamine-6-phosphate [1]) [s⁻¹] | self-cleavage kobs at 2500 uM GlcN6P (glucosamine-6-phosphate [2]) [s⁻¹] | self-cleavage kobs at 10000 uM GlcN6P (glucosamine-6-phosphate [3]) [s⁻¹]
C11U A42C U54C G59A G60A | < 1e-05 | < 1e-05 | 
G37A G63U A64C | < 1e-05 |  | < 1e-05
A12G G13U G62A | < 1e-05 |  | 
G7U U30C C61A | < 1e-05 |  | 
G29A U49A A53G C68A | 7.05e-05 ± 2.9e-05 |  | 
A14U G35A G40C | < 1e-05 |  | 
G7A C10U G29A U30G | < 1e-05 |  | 
C8G A42C U47A | < 1e-05 | < 1e-05 | 
A6C A53U C70U | 6.59e-05 ± 3.2e-05 |  | 
C8A C11U G13A C71U | < 1e-05 | < 1e-05 | 
U54A G62A G66C | < 1e-05 |  | 
A14G A52U C67U | 7.45e-05 ± 1.3e-05 | 0.00014 ± 3.1e-05 | 
A33G G40U C58A C67A | < 1e-05 | < 1e-05 | 
A15G C16A U30C | 0.000332 ± 0.00012 | 0.00063 ± 0.00023 | 
G35C G37U U56G | < 1e-05 |  | 
C10U U47C U55G | < 1e-05 |  | 
G43U C67G C70A | < 1e-05 |  | 
G9C A33U C34G U56A | < 1e-05 |  | 
G63A G66U C67U | < 1e-05 | < 1e-05 | 
C8G C61U C68U | < 1e-05 | < 1e-05 | 
C34U G38U G43C | < 1e-05 |  | 
A6U G13A C71A | < 1e-05 |  | 
G9U C11G G41U | < 1e-05 |  | 

Variant | self-cleavage kobs at 640 uM GlcN6P (glucosamine-6-phosphate [1]) [s⁻¹] | self-cleavage kobs at 2500 uM GlcN6P (glucosamine-6-phosphate [2]) [s⁻¹] | self-cleavage kobs at 10000 uM GlcN6P (glucosamine-6-phosphate [3]) [s⁻¹]
A6G U31C G59A | < 1e-05 |  | 
A48U C58U A64C | < 1e-05 | < 1e-05 | 
G13U G41U A52C | < 1e-05 |  | 
A39C G59C C68U | < 1e-05 |  | 
G29A G44U U65C | < 1e-05 | < 1e-05 | 
G37U A39U A52C G59A | < 1e-05 |  | 
C11A U31A G60A | < 1e-05 |  | 
A6G A42C A52U C68A | < 1e-05 | < 1e-05 | 
A52C C67U C71G | 5.68e-05 ± 2.4e-05 | 9.24e-05 ± 3.5e-05 | 
C11A U30C A53C C71U | < 1e-05 |  | 
G51C U54A U57A | < 1e-05 | < 1e-05 | 
C34A U49C C58A | < 1e-05 |  | 
A52G U55A C71A | 7.88e-05 ± 2.3e-05 | 0.000169 ± 7.2e-05 | 
G13A G40A G62A | < 1e-05 | < 1e-05 | 
A6G G41C A42C | < 1e-05 | < 1e-05 | 
A33C U47G | 8.08e-05 ± 3e-05 |  | 6.4e-05 ± 1.3e-05
C8A G9C G29C G35U | < 1e-05 | < 1e-05 | 
G29A G32A U57C U69C | 9.71e-05 ± 3.8e-05 |  | 
G29C G51U | < 1e-05 |  | 
A14G G29C A33C | < 1e-05 |  | 
U47A U54G C68G | 6.48e-05 ± 1.2e-05 | 6.96e-05 ± 1.8e-05 | 
A33U A39U G41C G43A C70G | < 1e-05 |  | 
U47C U54G G60A | < 1e-05 |  | 

Variant | self-cleavage kobs at 640 uM GlcN6P (glucosamine-6-phosphate [1]) [s⁻¹] | self-cleavage kobs at 2500 uM GlcN6P (glucosamine-6-phosphate [2]) [s⁻¹] | self-cleavage kobs at 10000 uM GlcN6P (glucosamine-6-phosphate [3]) [s⁻¹]
G38U G43C A53U | < 1e-05 | < 1e-05 | 
A36U G44C C61U C71A | < 1e-05 |  | 
C58G C68A | 0.000125 ± 3e-05 |  | 
A12C U49A A52C | < 1e-05 |  | 
A12C G40A U65A | 9.15e-05 ± 1.3e-05 | 0.000293 ± 5.4e-05 | 
G29U U56C C61G | < 1e-05 |  | 
C8A A36U U45C U57A | < 1e-05 |  | 
G62U U69G | 3.47e-05 ± 1.3e-05 | 0.000214 ± 8.3e-05 | 
A36C C70G | 0.000124 ± 2.1e-05 |  | 
G44A C61A C71U | < 1e-05 | < 1e-05 | 
A6C C10U C11A U56C | < 1e-05 | < 1e-05 | 
G37C G62U C68U | < 1e-05 | < 1e-05 | 
G13C G43C A48U | < 1e-05 | < 1e-05 | 
A12G C34G U47C | < 1e-05 |  | 
A36U A48U G60U C68A | < 1e-05 | < 1e-05 | 
C10U A12G G32A A42U | < 1e-05 | < 1e-05 | 
G37A A53G A64G | 0.000552 ± 9.7e-05 | 0.00103 ± 0.0003 | 0.00293 ± 0.0007
A14C U49G C68U | < 1e-05 |  | 
G9C U65C C68U | < 1e-05 |  | 
G51C A52C G60A | < 1e-05 |  | 
G60U C71A | < 1e-05 | < 1e-05 | < 1e-05
G9C G29A G32A | < 1e-05 | < 1e-05 | 
G51A G63U U65A | < 1e-05 |  | 
